Source: patent US20040121956A1 (PHARMACIA AND UPJOHN, published 2004)
Where no end group is shown, it is not given here.

T1: DmGPCR1 (PnuFlyPep34651) (Drosophila melanogaster)
T1 chain: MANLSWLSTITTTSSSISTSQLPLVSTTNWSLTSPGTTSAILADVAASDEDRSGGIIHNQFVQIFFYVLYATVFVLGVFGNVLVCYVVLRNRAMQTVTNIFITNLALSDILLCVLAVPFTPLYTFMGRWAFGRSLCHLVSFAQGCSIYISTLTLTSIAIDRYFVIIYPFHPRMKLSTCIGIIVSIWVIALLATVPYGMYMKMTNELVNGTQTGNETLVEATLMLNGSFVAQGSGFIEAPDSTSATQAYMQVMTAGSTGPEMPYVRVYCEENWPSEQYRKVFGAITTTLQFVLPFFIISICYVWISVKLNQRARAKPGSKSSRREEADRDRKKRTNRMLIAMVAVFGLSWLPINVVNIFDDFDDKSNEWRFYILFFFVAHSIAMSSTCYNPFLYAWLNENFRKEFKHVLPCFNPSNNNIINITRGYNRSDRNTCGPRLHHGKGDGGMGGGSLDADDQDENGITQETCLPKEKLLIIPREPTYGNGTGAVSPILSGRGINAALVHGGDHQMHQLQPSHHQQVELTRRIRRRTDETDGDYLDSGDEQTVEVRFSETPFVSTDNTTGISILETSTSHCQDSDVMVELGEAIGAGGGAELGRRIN

T2: DmGPCR6a (M811490) (Drosophila melanogaster, UniProt P25931 1-464)
T2 sequence (looked up): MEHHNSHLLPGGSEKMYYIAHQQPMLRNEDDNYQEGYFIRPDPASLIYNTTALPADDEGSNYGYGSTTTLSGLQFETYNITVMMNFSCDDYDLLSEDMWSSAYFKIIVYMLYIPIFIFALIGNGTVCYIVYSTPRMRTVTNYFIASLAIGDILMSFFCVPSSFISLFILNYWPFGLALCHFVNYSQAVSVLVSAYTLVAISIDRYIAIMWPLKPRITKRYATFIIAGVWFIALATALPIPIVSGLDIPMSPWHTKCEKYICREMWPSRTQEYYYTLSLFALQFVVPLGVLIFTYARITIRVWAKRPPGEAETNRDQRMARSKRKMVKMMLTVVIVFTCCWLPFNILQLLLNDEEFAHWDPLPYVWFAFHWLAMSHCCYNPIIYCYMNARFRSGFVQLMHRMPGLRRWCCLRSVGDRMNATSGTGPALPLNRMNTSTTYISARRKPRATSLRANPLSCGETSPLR


Legend:
DmGPCR1 (PnuFlyPep34651) = target: T1, DmGPCR1 (PnuFlyPep34651); assay: cell-based or functional assay
DmGPCR6a (M811490) = target: T2, DmGPCR6a (M811490); assay: cell-based or functional assay

Row | EC50, FLIPR assay (DmGPCR1 (PnuFlyPep34651)) [nM] | GTPγS binding, fold increase, 5 µM NPFF (DmGPCR6a (M811490)) [fold] | Binder
1 | 100 to 200 |  | ARGPQLRLRF-NH2 [ARGPQLRLRF-NH2]
2 |  | 4 | FLFQPQRF-NH2 [human NPFF (FLFQPQRF-NH2)]
